Data on 116 sequences can be found in the supplement of paper PMC10724198.

± gives the standard deviation of the averaged measurements.
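Also: PSI is a weighted mean of sequencing reads over stability bins, variants kept only with over 10 reads, mCherry proximal and sfGFP distal, peptide attached via GGGS linker.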

This data set concerns Saccharomyces cerevisiae. As to the kind of experiment: protein stability index of tFT-peptide fusion (C-terminal peptide) (PSI (0-1 scale)); higher = more stable (slower turnover). The following applies: genetic background: wild type; temperature: 30 C.
IVSISCPADWLD yielded a protein stability index of 0.754 ± 0.034.

IWAEYIDAVLIN had a protein stability index of 0.6 ± 0.061.

Turning to IWGLSSLYGCGW, the protein stability index is 0.728 ± 0.011.

On to IWLVRLSCARAF, for which the protein stability index amounted to 0.5374 ± 0.0019.

Regarding IYSPQIPTPPVL, the protein stability index worked out at 0.664 ± 0.058.

For the sequence IYTRVWPQSWLP, the protein stability index came to 0.696 ± 0.038.

Regarding KAGLSFSRQRGW, the protein stability index was determined as 0.606 ± 0.058.

The sequence KAIKNKQKFKEK returned a protein stability index of 0.726 ± 0.012.

Take KAKCRNRQDEVI: the protein stability index worked out at 0.742 ± 0.026.

Consider KALGFHGGLHRF, for which the protein stability index was determined as 0.5733 ± 0.0027.

Sequence KAQKKGRHSKEL gave a protein stability index of 0.712 ± 0.0059.

The sequence KARMEKKRKIKL registered a protein stability index of 0.728 ± 0.073.

Take KCAIKKQEQTSR: the protein stability index is 0.642 ± 0.02.

For the sequence KCLCSKSGSWPC, the protein stability index was 0.685 ± 0.0078.

KCSSEPMCKTCR registered a protein stability index of 0.626 ± 0.053.

In turn, KDIVSEPKVKRE returned a protein stability index of 0.744 ± 0.012.

KDKGEKEKRRTK came in with a protein stability index of 0.719 ± 0.077.

As for KDKRKAETKSRN, the protein stability index is 0.688 ± 0.037.

KDVGKVATRRSK registered a protein stability index of 0.696 ± 0.028.

Regarding KEARKREHKQTN, the protein stability index turned out to be 0.67 ± 0.094.

With KEGSGQRRARRA, the protein stability index worked out at 0.686 ± 0.066.

For KEHTKKQERTPK, the protein stability index was found to be 0.596 ± 0.051.

Sequence KEHTNKDEMPKE yielded a protein stability index of 0.705 ± 0.074.

Turning to KEILTNNQKGQD, the protein stability index turned out to be 0.6602 ± 0.0036.

With KEKKNKKKKQNR, the protein stability index was found to be 0.701 ± 0.021.

KELNRRTNSPSE: the protein stability index worked out at 0.644 ± 0.046.

Sequence KENKKNDRRDII returned a protein stability index of 0.728 ± 0.023.

On to KENNWTKKKKGK, for which the protein stability index is 0.655 ± 0.064.

KEQNKVHTQNKK showed a protein stability index of 0.755 ± 0.29.

In the case of KERARNTKRGSD, the protein stability index turned out to be 0.641 ± 0.08.

As for KERLLTLHSHSH, the protein stability index came out at 0.71 ± 0.037.

As to KERLQLSVNLNI, the protein stability index amounted to 0.628 ± 0.067.

On to KETTEKTEIRII, for which the protein stability index was 0.7 ± 0.012.

In turn, KEYNIKNEREEK came in with a protein stability index of 0.716 ± 0.031.

KFNNIQNWRLAY registered a protein stability index of 0.787 ± 0.098.

As to KGCRYVGARHEG, the protein stability index came out at 0.698 ± 0.017.

The sequence KGEGRERSRSRK had a protein stability index of 0.768 ± 0.034.

Consider KGGLLPWGPWNA, for which the protein stability index was found to be 0.743 ± 0.064.

With KGGSVNRLSQVR, the protein stability index amounted to 0.6713 ± 0.00097.

Take KGHGTTCVGRQV: the protein stability index came to 0.677 ± 0.04.

Consider KGICALKIATGK, for which the protein stability index is 0.603 ± 0.032.

For KGKRSRTRKPEE, the protein stability index was found to be 0.677 ± 0.013.

For KGLSNGKNQIKM, the protein stability index turned out to be 0.597 ± 0.036.

Turning to KGQGPAKTRTRE, the protein stability index is 0.723 ± 0.031.

Consider KGQKVAYSRHRA, for which the protein stability index was 0.718 ± 0.063.

As for KGREKTKKKGTK, the protein stability index was determined as 0.688 ± 0.011.

Consider KGTQINNRCKLK, for which the protein stability index was 0.684 ± 0.078.

For KHDIEYRTQIKK, the protein stability index was determined as 0.662 ± 0.033.

KHRIEYQEKNTF displayed a protein stability index of 0.67 ± 0.019.

KIEHEGIKKGGT came in with a protein stability index of 0.807 ± 0.14.

On to KIIKNKIKKHNK, for which the protein stability index stood at 0.626 ± 0.018.

In turn, KIKERKNVKGKK yielded a protein stability index of 0.685 ± 0.024.

KIKINKRIQNKK: the protein stability index was determined as 0.682 ± 0.036.

In turn, KIKKKRKQKGKQ returned a protein stability index of 0.722 ± 0.046.

As to KIKNNKNKKKKS, the protein stability index turned out to be 0.693 ± 0.01.

For KIKTIKKHKKKY, the protein stability index came out at 0.713 ± 0.056.

In the case of KIMIRKIEIKKE, the protein stability index was 0.69 ± 0.049.

KINELGYMNLKM displayed a protein stability index of 0.716 ± 0.013.

On to KIPEQRISKTKK, for which the protein stability index was found to be 0.745 ± 0.011.

As to KKAKEETSTPDC, the protein stability index came to 0.67 ± 0.034.

In turn, KKEISSTAGIIV registered a protein stability index of 0.637 ± 0.073.

Sequence KKETKLKKTEVK came in with a protein stability index of 0.69 ± 0.095.

KKFRKGKKNKRK returned a protein stability index of 0.657 ± 0.03.

In turn, KKIEAKGMRNDS returned a protein stability index of 0.599 ± 0.055.

As for KKIQKKKKLIPQ, the protein stability index was 0.7247 ± 0.0058.

In turn, KKIQKKTPAIDG gave a protein stability index of 0.671 ± 0.1.

In turn, KKIRGNSQLHPG came in with a protein stability index of 0.63 ± 0.015.

Consider KKITKPKSQRLV, for which the protein stability index was determined as 0.669 ± 0.014.

As for KKKEKKIKKTIK, the protein stability index worked out at 0.724 ± 0.048.

As to KKKEKQRQSKRR, the protein stability index is 0.689 ± 0.026.

KKKGSKITKIKD displayed a protein stability index of 0.699 ± 0.064.

In turn, KKKIRKKKVRRK registered a protein stability index of 0.649 ± 0.024.

Take KKKKKETKNAQQ: the protein stability index stood at 0.685 ± 0.0077.

Regarding KKKKKHKKPIES, the protein stability index is 0.666 ± 0.022.

KKKKKIPKKAKR yielded a protein stability index of 0.666 ± 0.049.

On to KKKKKKEYTKTN, for which the protein stability index was 0.718 ± 0.011.

Sequence KKKKKKKKEKKK came in with a protein stability index of 0.726 ± 0.041.

With KKKKKKKKKKKK, the protein stability index was 0.6364 ± 0.00086.

Sequence KKKKKKKNTKTK returned a protein stability index of 0.644 ± 0.0076.

KKKKKKKTKKQK: the protein stability index amounted to 0.696 ± 0.024.

With KKKKKKKTKKRK, the protein stability index was 0.717 ± 0.029.

KKKKKKNNSKTT returned a protein stability index of 0.739 ± 0.19.

With KKKKKKTKNEIK, the protein stability index is 0.643 ± 0.016.

KKKKKNKKENAE yielded a protein stability index of 0.742 ± 0.086.

For KKKKKNTIKKNK, the protein stability index is 0.708 ± 0.0083.

Turning to KKKKKPKKQNSG, the protein stability index was determined as 0.6592 ± 0.0047.

Take KKKKKQKKKKGT: the protein stability index was 0.713 ± 0.034.

Regarding KKKKKQRNQKAK, the protein stability index came to 0.612 ± 0.032.

The sequence KKKKKSKKKETR yielded a protein stability index of 0.807 ± 0.11.

The sequence KKKKNHKRKKRN registered a protein stability index of 0.828 ± 0.041.

KKKKNKKKKKPK showed a protein stability index of 0.615 ± 0.041.

Take KKKKQKIRKVKK: the protein stability index turned out to be 0.725 ± 0.084.

On to KKKKTKPKPKRM, for which the protein stability index was found to be 0.6594 ± 0.0047.

For the sequence KKKNRKQKHKQL, the protein stability index is 0.565 ± 0.014.

Regarding KKKQKKERKKTK, the protein stability index came out at 0.649 ± 0.042.

For KKKRKDKTKIDK, the protein stability index was 0.658 ± 0.057.

Sequence KKKRKKKNRGKK registered a protein stability index of 0.6789 ± 0.004.

For KKKTKTQTGKKS, the protein stability index worked out at 0.744 ± 0.016.

For the sequence KKKTRIYKRQKR, the protein stability index was found to be 0.655 ± 0.077.

KKLGLINITIRV yielded a protein stability index of 0.535 ± 0.017.

KKLNTYISQIEQ registered a protein stability index of 0.707 ± 0.0079.

Regarding KKMKSKTKEINK, the protein stability index came out at 0.698 ± 0.035.

As for KKMKVEKGITQK, the protein stability index is 0.775 ± 0.068.

In turn, KKNKKKNRTKIE returned a protein stability index of 0.657 ± 0.022.

Sequence KKNMIIRVMIGV came in with a protein stability index of 0.495 ± 0.074.

KKQEKKKNKNDR registered a protein stability index of 0.646 ± 0.028.

In turn, KKQKEKEKLVYC gave a protein stability index of 0.733 ± 0.085.

In turn, KKQNRTRLKKSK showed a protein stability index of 0.702 ± 0.03.

For KKQQTIKKKKKR, the protein stability index is 0.7014 ± 0.003.

For the sequence KKRHERNYLVQS, the protein stability index was 0.662 ± 0.066.

Regarding KKRRTCPNRRDK, the protein stability index amounted to 0.554 ± 0.036.

KKRTQKKKKYNR came in with a protein stability index of 0.6943 ± 0.0063.

Sequence KKSRLNRIVMRH had a protein stability index of 0.664 ± 0.073.

Regarding KKTEKKYNRNRG, the protein stability index worked out at 0.786 ± 0.1.

Sequence KKTKKKRGEYKK displayed a protein stability index of 0.714 ± 0.017.

On to KKTLIQKEQIRR, for which the protein stability index came out at 0.644 ± 0.022.
